Patent US20110160440A1, “Cab Molecules” (GENENCOR INTERNATIONAL, INC., priority 2003, published 2011)
Changes are numbered by the printed parent chain.

Assays:
[1] = target: T1, CEA (carcinoembryonic antigen) (Homo sapiens, UniProt P06731); assay: CEA-binding assay on CEA-coated plates, bound BLA activity read with nitrocefin; conditions: for binding to CEA / affinity in library screening: relative to parent clone
T1 construct: purchased Biodesign Intl., Saco, Me
T1 sequence (P06731 35-676): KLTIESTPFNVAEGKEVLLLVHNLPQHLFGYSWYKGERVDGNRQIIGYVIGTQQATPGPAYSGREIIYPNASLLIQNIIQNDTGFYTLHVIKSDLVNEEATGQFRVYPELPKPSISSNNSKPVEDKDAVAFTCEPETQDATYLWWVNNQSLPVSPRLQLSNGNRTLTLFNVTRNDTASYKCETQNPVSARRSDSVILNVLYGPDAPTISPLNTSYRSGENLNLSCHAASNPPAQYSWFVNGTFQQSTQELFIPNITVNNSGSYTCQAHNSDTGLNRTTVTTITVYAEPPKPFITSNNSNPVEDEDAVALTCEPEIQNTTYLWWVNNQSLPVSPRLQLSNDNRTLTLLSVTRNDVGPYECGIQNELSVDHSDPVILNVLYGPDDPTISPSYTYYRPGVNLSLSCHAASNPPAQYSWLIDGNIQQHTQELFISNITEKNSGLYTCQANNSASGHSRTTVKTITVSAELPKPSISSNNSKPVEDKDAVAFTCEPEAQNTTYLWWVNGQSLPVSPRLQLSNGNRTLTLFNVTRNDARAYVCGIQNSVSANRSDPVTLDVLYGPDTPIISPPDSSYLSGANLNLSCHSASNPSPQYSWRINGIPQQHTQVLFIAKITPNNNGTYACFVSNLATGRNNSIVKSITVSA
Experimental: (§1) Binding to CEA (carcinoembryonic antigen, Biodesign Intl., Saco, Me.) was measured using the following procedure: 96-well plates were coated with 100 ul per well of 5 ug/ml of CEA in 50 mM carbonate buffer pH 9.6 overnight. The plates were washed with PBST and blocked for 1-2 hours with 300 ul of casein (Pierce, Rockford, Ill.). 100 ul of sample from the production plate diluted 100-1000 fold was added to the CEA-coated plate and the plates were incubated for 2 h at room temperature. Subsequently, the plates were washed four times with PBST and 200 ul nitrocefin assay buffer was added, and the BLA activity was measured as described above.
as §1, with “Biodesign Intl., Saco. Me.) was” for “Biodesign Intl., Saco, Me.) was”, “Ill.). 100 n1 of sample” for “Ill.). 100 ul of sample”, “to the CEA coated plate and” for “to the CEA-coated plate and”, “described above. CEA binding was measured in 50 mM phosphate buffer pH 6.5 and in a separate experiment in 50 mM phosphate buffer pH 7.4.” for “described above.”
Winners were confirmed by culturing them in 5 ml of LB medium containing 5 mg/l chloramphenicol and 0.1 mg/l cefotaxime (Sigma) for 2 days at 37 C. Subsequently, the cultures were centrifuged and the pellet was suspended in 375 ul of BPER reagent to release the fusion protein. BLA activity was determined as above. One unit of activity was defined as the amount of BLA that leads to an absorbance increase of one mOD per minute. The samples were diluted based on their total content of BLA activity and the CEA-binding assay was performed as described above but adding various sample dilutions to each well.
In order to compare the target-binding properties of various CAB1 variants, we grew 5 ml cultures of TOP10F′ containing the corresponding expression plasmids, as provided above for 3 days at 25 C in LB medium containing 5 mg/l chloramphenicol. The cultures were centrifuged, and the resulting supernatant was discarded. The cell pellets were resuspended in 500 μL of B-PER reagent. This was incubated for 30 minutes. Lactamase concentration in each sample was determined using nitrocephin as substrate, as provided above.
Binding of the samples to microtiter plates coated with CEA was studied in 50 mM phosphate buffer at pH 6.5 and pH 7.4, as provided above.

[2] = test system: host proteases; assay: Screen for improved expression: total BLA activity and CEA-bound BLA activity of CAB1 fusion variants after 3 days of culture (resistance to host proteases); conditions: limited randomized library on pSW129.5 template
Experimental: Degradation seems to occur mainly in the scFv portion of the CAB1 fusion protein as the cultures contain significant amounts of free BLA after 3 days, which can be detected by Western blotting, or a nitrocefin (Oxoid, N.Y.) activity assay. Thus we applied a screen to library NA05 that was able to detect variants of CAB1-scFv that would resist degradation by host proteases over 3 days of culture at 37 C.
Library NA05 was plated onto agar plates with LA medium containing 5 mg/l chloramphenicol and 0.1 mg/l cefotaxime (Sigma). 910 colonies were transferred into a total of 10 96-well plates containing 100 ul/well of LA medium containing 5 mg/l chloramphenicol and 0.1 mg/l cefotaxime. […] The production plate was diluted 100-fold in PBST (PBS containing 0.125% Tween-20) and BLA activity was measured by transferring 20 ul diluted lysate into 180 ul of nitrocephin assay buffer (0.1 mg/ml nitrocephin in 50 mM PBS buffer containing 0.125% octylglucopyranoside (Sigma)) and the BLA activity was determined at 490 inn using a Spectramax plus plate reader (Molecular Devices, Sunnyvale, Calif.).
Binding to CEA (carcinoembryonic antigen, Biodesign Intl., Saco, Me.) was measured using the following procedure: 96-well plates were coated with 100 ul per well of 5 ug/ml of CEA in 50 mM carbonate buffer pH 9.6 overnight. […]

[3] = test system: LS174T cells; assay: Binding of CAB variants to fixed LS174T cells; design: species or system human
Experimental: In a similar experiment, binding of variants to LS174T cells was measured. LS174T cells were inoculated in 96 well polystyrene plate at 1×10^5 cells/well in a medium containing 70% DMEM, 30% F12, non-essential amino acids, L-Glut, and Sodium Pyruvate (all from Mediatech). The plate was incubated at 37° C. in a humidified CO2 incubator for 20 hours. The cells were then fixed with 4% formaldehyde in PBS (Polysciences, Warrington, Pa.). The plate was washed with PBST, and 1 mg/ml NaBH4 (Sigma) was added into each well to quench any reactive group. Then the plate was washed again with PBST. Binding of CAB molecules was continued the same way as binding to CEA antigen.

B1: CAB1.4 (protein)
chain: QVQLQQSGAELVKSGGSVKLSCTASGFNIKDSYMHWVRQGPEQGLEWIGWIDPENGDTEYAPKFQGKATFTTDTSSNTAYLQLSSLTSEDTAVYYCNEGTPTGPYYFDYWGQGTTVTVSSGGGGSGGGGSGGGGSENVLTQSPAIVSASPGEKVTITCSASSSVSYMHWFQQKPGTSPKLVIYDTSNLASGVPARFSGSGSGTSYSLTISRMEAEDAATYYCQQRDSYPLTFGAGTKLELKRAATPVSEKQLAEVVANTITPLMKAQSVPGMAVAVIYQGKPHYYTFGKADIAANKPVTPQTLFELGSISKTFTGVLGGDAIARGEISLDDAVTRYWPQLTGKQWQGIRMLDLATYTAGGLPLQVPDEVTDNASLLRFYQNWQPQWKPGTTRLYANASIGLFGALAVKPSGMPYEQAMTTRVLKPLKLDHTWINVPKAEEAHYAWGYRDGKAVRVSPGMLDAQAYGVKTNVQDMANWVMANMAPENVADASLKQGIALAQSRYWRIGSMYQGLGWEMLNWPVEANTVVETSFGNVALAPLPVAEVNPPAPPVKASWVHKTGSTGGFGSYVAFIPEKQIGIVMLANTSYPNPARVEAAYHILEALQ
binding to CEA ([1]; pH 6.5): significant binding | binding to CEA ([1]; pH 7.4): very weak binding

B2: SW149.5 (protein)
chain: B1 chain with T100L, T102L, P104A, Y105I, F107N
expression [2]: improved expression | binding to CEA / affinity in library screening [1]: improved expression and affinity

B3: CAB1.7: best variant of library SW155 from SW149.5; SEQ ID NO:9 (protein)
chain: B1 chain with T100L, T102L, P104A, Y105I, F107N, S163A, S165Y, Y166A, K241D
modifications: CAB1.7 protein variant
binding to LS174T cells ([3]; pH 6.5): closely resembles the binding curve of CAB1.2 | saturation levels of binding curves on LS174T cells ([3]; pH 6.5 vs pH 7.4): pH-dependent | binding to LS174T cells ([3]; pH 7.4, compared to CAB1.2): significantly weaker binding | binding to CEA / affinity in library screening [1]: significantly improved binding to CEA
